Residue numbers refer to the chain shown, from its start. In names and notes the source's numbering stands.

For one series, the target named is human PCNA, purified (human, UniProt P12004 1-261). Nature of the series: ITC.
The series “cross-linking” deals with the molecule itself. Nature of the series: cross-linking.
The series “ITC” deals with the molecule itself. Nature of the series: ITC. On the technique in general: In ITC the heat of successive injections is recorded.
The series “native gel or EMSA” concerns the molecule itself. Briefly: native gel or EMSA. Background: A gel shift assay detects complexes by their altered migration in electrophoresis.

human PCNA, purified, sequence (P12004 whole entry): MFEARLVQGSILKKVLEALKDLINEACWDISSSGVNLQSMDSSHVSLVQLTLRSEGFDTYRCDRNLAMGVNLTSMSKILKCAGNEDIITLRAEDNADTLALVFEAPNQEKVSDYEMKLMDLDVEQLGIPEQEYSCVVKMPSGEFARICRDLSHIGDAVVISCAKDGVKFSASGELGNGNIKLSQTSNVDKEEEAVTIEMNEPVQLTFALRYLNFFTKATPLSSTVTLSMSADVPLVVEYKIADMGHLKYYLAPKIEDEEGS

B1: p12 subunit of human DNA polymerase delta, purified, GST tag cleaved off (natural protein)
chain: MGRKRLITDSYPVVKRREGPAGHSKGELAPELGEEPQPRDEEEAELELLRQFDLAWQYGPCTGITRLQRWCRAKQMGLEPPPEVWQVLKTHPGDPRFQCSLWHLYPL
For B1, the Kd (usually a measure of binding affinity in units of concentration) in the series with human PCNA, purified stood at 10 µM. In addition, the stoichiometry N (usually the number of molecules, sites or subunits per partner or assembly) in “cross-linking” is 2. Moreover, in “ITC”, the dissociation constant Kd was ~0.146 µM, the dH was ~-1.82 kcal/mol and the “stoichiometry N” value is ~0.6.

B2: p12 L104A, Y105A mutant, purified (natural protein)
chain: B1 chain with L104A, Y105A
Take B2: in the series “cross-linking”, the “stoichiometry N” value turned out to be 2.

B3: Cdm1, fourth subunit of S. pombe DNA polymerase delta, purified (natural protein)
chain: MKKRTTQAKKSGQNTNIRDVFPHVVRSNSSQSHIGKKVSSEQSPTPDVTITTKTLDERIKEDDELSKEVEEAWNQIMAERISEPIHCENITKVEFILHHFDTTARYGPYLGMTRMQRWKRAKNFNLNPPETVGKILMLEEADEENRKRESLFYDLQTIPG
Consider B3, for which the binding result in “native gel or EMSA” is reported as “binds”.

The values are drawn from paper doi:10.1101/525485 (bioRxiv, 2019).
